Experimental data published in article PMC9357107.

Experiments:
[1] = target: linker domain of human IGFBP2 (L-hIGFBP2; residues A97-C191) (human); experiment: NMR titration
[2] = target: insulin-like growth factor 1 (IGF-1) (human) (UniProt P05019); experiment: SPR
[3] = target: insulin-like growth factor 2 (IGF-2) (human) (UniProt P01344); experiment: SPR
Sequence of UniProt P01344 (P01344 25-91): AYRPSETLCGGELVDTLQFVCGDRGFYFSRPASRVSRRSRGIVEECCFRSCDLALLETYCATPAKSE

stoichiometry N [1]	Kd [2] [µM]	Kd [3] [µM]	Substance
1			insulin-like growth factor 1 (IGF-1) (from UniProt P05019 49-118) (ligand)
	4.1	3.7	linker domain of human IGFBP2 (L-hIGFBP2; residues A97-C191) (domain or fragment)
